B1: free Mb: free (unencapsulated) myoglobin, a cytoplasmic heme protein (protein, UniProt P02144 2-154, looked up)
Myoglobin: GLSDGEWQLVLNVWGKVEADIPGHGQEVLIRLFKGHPETLEKFDKFKHLKSEDEMKASEDLKKHGATVLTALGGILKKKGHHEAEIKPLAQSHATKHKIPVKYLEFISECIIQVLQSKHPGDFGADAQGAMNKALELFRKDMASNYKELGFQG
B2: NIR-Mb: near-infrared fluorophore (IRDye800cw NHS) covalently attached to the lysines on horse skeletal myoglobin; negative control (conjugate, UniProt P68082 2-154, looked up)
Myoglobin: GLSDGEWQQVLNVWGKVEADIAGHGQEVLIRLFTGHPETLEKFDKFKHLKTEAEMKASEDLKKHGTVVLTALGGILKKKGHHEAELKPLAQSHATKHKIPIKYLEFISDAIIHVLHSKHPGDFGADAQGAMTKALELFRNDIAAKYKELGFQG
modifications: IRDye800CW NHS on lysines
notes: near-infrared fluorophore (IRDye800cw NHS) covalently attached to the lysines on horse skeletal myoglobin; negative control

Tests used:
[1] = Oxygen equilibrium binding curves (Hemox Analyzer, Hill model); conditions: partial pressure of O2 at 50% saturation; 37° C.
Description: Oxygen equilibrium binding curves of PEM and free Mb dispersions may be measured using a Hemox™ Analyzer at physiological temperature (37° C.). In brief, samples may be allowed to saturate to a pO2 of 147 mm Hg using compressed air and then deoxygenated using a compressed nitrogen stream. UV-Vis absorbance measurements of oxygenated and deoxygenated samples may be recorded as a function of pO2 via dual wavelength spectroscopy. Oxygen-PEM/myoglobin equilibrium curves may be fit to a four-parameter (A0, A∞, P50, n) Hill model:
in which A0 and A∞ represent the absorbance at 0 mm Hg and at full O2 saturation, respectively. The pO2 represents the partial pressure of O2, and P50 represents the partial pressure of O2 where PEM/Mb is 50% saturated with oxygen. Lastly, ‘n’ represents the cooperativity coefficient of PEM/Mb. […] The lower O2 affinity (higher P5o) of PEM than free myoglobin may be attributed to the shielding effect of the polymersome membrane, which was further found to delay the kinetics of O2 binding to PEM.

[2] = Biodistribution/pharmacokinetics after IV injection in 4T1 tumor-bearing mice; type: in vivo, balb/c mice; conditions: via the kidneys and into the bladder
Description: In example studies, 0.5×10^6 to 1×10^6 4 T1 mouse mammary carcinoma cells were injected into the mammary fat pads of balb/c mice. Once the tumors were greater than 5 mm in diameter, mice were randomized and treated via tail vein catheter with PEMs (at 100 μL of 2.5 mg/mL Mb, corresponding to 50 mg/mL polymer suspensions), empty polymersomes (at equivalent polymer doses), and NIR-Mb (at equivalent myoglobin doses) (n=5 per group). NIR-Mb and PEM were reduced to their oxy-myoglobin form prior to treatment, following protocols discussed above. Mice were sacrificed at 24 h (for biodistribution/pharmacokinetic studies) or at 6-9 days (for histology and toxicology assessment following tumor efficacy studies). […]
For all biodistribution studies, NIR imaging of polymersomes, NIR-Mb and PEM was conducted with an MS® Kinetic Imaging System (Perkin Elmer, AeX=745 nm, Aem=810-875 nm) equipped with a Xenogen XGI-8 gas anesthesia system. Fluorescence images were analyzed with Living Image® 4.2 software by measuring radiant efficiency of regions of interest (ROIs). […]
For the pharmacokinetic studies, 15-100 μL blood samples were drawn (using a 5.5 mm lancet, Goldenrod) from the submandibular vein of the mouse and collected directly into heparinized capillary tubes (Kimble). […] The total radiant efficiency of the plasma in each capillary tube was measured in a region of interest of consistent dimensions. […]

[3] = Serum chemistry panel and liver histology of treated tumor-bearing mice; type: in vivo; conditions: n=5 mice per treatment; FIG. 21
Description: In example studies, 0.5×10^6 to 1×10^6 4 T1 mouse mammary carcinoma cells were injected into the mammary fat pads of balb/c mice. Once the tumors were greater than 5 mm in diameter, mice were randomized and treated via tail vein catheter with PEMs (at 100 μL of 2.5 mg/mL Mb, corresponding to 50 mg/mL polymer suspensions), empty polymersomes (at equivalent polymer doses), and NIR-Mb (at equivalent myoglobin doses) (n=5 per group). NIR-Mb and PEM were reduced to their oxy-myoglobin form prior to treatment, following protocols discussed above. Mice were sacrificed at 24 h (for biodistribution/pharmacokinetic studies) or at 6-9 days (for histology and toxicology assessment following tumor efficacy studies). In both cases, EF-5 was used to stain for hypoxia and Hoechst solution for perfusion. Tumors were collected at sacrifice. Immunofluorescence (IF) was carried out to image EF-5 and Hoechst distribution throughout the tumors. The same tumor sections were also stained with hematoxylin and eosin (H&E) for immunohistologic (IHC) analysis. Blood was collected via cardiac puncture at sacrifice; plasma was isolated and stored at −80° C. for later analyses.
FIG. 21 provides results of a serum chemistry panel done for a set of tumor-bearing mice injected with each of the following treatments (n=5 mice per treatment): NIR-myoglobin (control), empty polymersomes (control), and PEMs. […]

Molecule | P50 [1] | plasma clearance [2] | serum chemistry panel [3]
B1 | ~2 mm Hg | – | –
B2 | – | extremely rapid plasma clearance | no consistently elevated levels for any parameter

Source: US20170361126A1, “Compositions and Methods for Inducing Nanoparticle Mediated Microvascular Embolization of Tumors” (Vindico NanoBioTechnology, LLC, priority 2011, published 2017)
